The target in test [1] is T1, CD3 (UniProt P07766 23-207).
T1 construct: whole, on cells; on cells it stands in the TCR/CD3 complex; also called CD3 on Jurkat cells
The experiment in a line: flow cytometry, serial dilution on Jurkat cells (CD3-expressing), PE anti-human Fc detection. As to the method: (§1) Binding of trivalent, bispecific fusion proteins to HER3-expressing (LIM1215, MCF-7) and CD3-expressing (Jurkat) cell lines was analyzed by flow cytometry. 2×10⁵ cells/well were incubated with a serial dilution of trivalent, bispecific antibodies for 1 h at 4° C. followed by detection using a PE-conjugated anti-human Fc antibody (Jackson ImmunoResearch Laboratories Inc). […] Concerning binding to the CD3-expressing cell line Jurkat, the trivalent, bispecific antibodies in the (1-2)+1 and in the (2−1)+1 orientation bound with EC₅₀ values in the low nanomolar range.
In general terms: A flow cytometer gives signals particle by particle.

The target of test [2] is T2, HER3 (UniProt P21860 20-1342, limits assumed).
T2 construct: whole, on cells; the cell lines are human tumor lines
In words: flow cytometry, serial dilution on MCF-7 cells (HER3-expressing), PE anti-human Fc detection. On the procedure: as §1

Test [3] deals with T2, HER3. In words: flow cytometry, serial dilution on LIM1215 cells (HER3-expressing), PE anti-human Fc detection. On the procedure:
as §1

Test [4] has as its target T3, EGFR (UniProt P00533 25-1210, limits assumed). The experiment in a line: cell-based or functional assay.
Test [5] has as its target T3, EGFR. In words: flow cytometry, serial dilution on FaDu cells (EGFR-expressing), PE anti-human Fc detection. On the procedure:
(§2) Binding analysis of the trivalent, bispecific antibodies was performed by flow cytometry using tumor cell lines with different EGFR-expression levels (FIG. 20) (Table 12). Adherent cells were washed with PBS and shortly trypsinized at 37° C. Trypsin was quenched with FCS-containing medium and removed by centrifugation (500×g, 5 min.). Target cells (FaDu, LIM1215, SKBR-3, T-47-D, MCF-7 and Jurkat cells) at 1×10⁵ cells/well were incubated with a serial dilution of trivalent, bispecific antibodies for 1 h at 4° C. After removing excess of recombinant protein by washing with PBA (PBS, 2% FBS, and 0.02% sodium azide), bound protein was detected using PE-conjugated anti-human Fc mAb (Jackson ImmunoResearch Laboratories Inc). Fluorescence was measured using MACSquant VYB (Miltenyi Biotec) and data were analyzed using FlowJo (Tree Star). Relative median fluorescence intensities (MFI) were calculated as followed: relative MFI=((MFIₛₐₘₚₗₑ-(MFIdetection-MFIcells))/MFIcells).

Test [6] deals with T1, CD3. The experiment in a line: flow cytometry, serial dilution on Jurkat cells (CD3-expressing), PE anti-human Fc detection. On the procedure: as §2
This is another data set of the same source.

Test [7] has as its target T3, EGFR. In words: flow cytometry, serial dilution on MCF-7 cells (EGFR-expressing), PE anti-human Fc detection. As to the method:
as §2

Test [8] addresses T3, EGFR. The experiment in a line: flow cytometry, serial dilution on SKBR-3 cells (EGFR-expressing), PE anti-human Fc detection. As to the method:
as §2

The target in test [9] is T3, EGFR. In words: flow cytometry, serial dilution on T-47-D cells (EGFR-expressing), PE anti-human Fc detection. On the procedure: as §2
In test [10] the target is T3, EGFR. In words: flow cytometry, serial dilution on LIM1215 cells (EGFR-expressing), PE anti-human Fc detection. On the procedure: as §2

Where two headings read alike, the source gives them in different places.

B1: scDb/Fab-Fc (1-1)+2, trivalent bispecific anti-HER3×anti-CD3 (bispecific antibody)
chain: QVQLQQSGPGLVKPSQTLSLTCAISGDSVSSNRAAWNWIRQSPSRGLEWLGRTYYRSKWYNDYAQSLKSRITINPDTPKNQFSLQLNSVTPEDTAVYYCARDGQLGLDALDIWGQGTMVTVSSGGGGSQAGLTQPPAVSVAPGQTASITCGRDNIGSRSVHWYQQKPGQAPVLVVYDDSDRPAGIPERFSGSNYENTATLTISRVEAGDEADYYCQVWGITSDHVVFGGGTKLTVLGGGGSGGGGSGGGGSQVQLQQSGPGLVKPSQTLSLTCAISGDSVSSNRAAWNWIRQSPSRGLEWLGRTYYRSKWYNDYAQSLKSRITINPDTPKNQFSLQLNSVTPEDTAVYYCARDGQLGLDALDIWGQGTMVTVSSGGGGSQAGLTQPPAVSVAPGQTASITCGRDNIGSRSVHWYQQKPGQAPVLVVYDDSDRPAGIPERFSGSNYENTATLTISRVEAGDEADYYCQVWGITSDHVVFGGGTKLTVLAAADKTHTCPPCPAPPVAGPSVFLFPPKPKDTLMISRTPEVTCVVVDVSHEDPEVKFNWYVDGVEVHNAKTKPREEQYNSTYRVVSVLTVLHQDWLNGKEYKCKVSNKGLPSSIEKTISKAKGQPREPQVCTLPPSRDELTKNQVSLSCAVKGFYPSDIAVEWESNGQPENNYKTTPPVLDSDGSFFLVSKLTVDKSRWQQGNVFSCSVMHEALHNHYTQKSLSLSPGK
heavy: QVQLVQSGAEVKKPGSSVKVSCKASGGTFSGYTMNWVRQAPGQGLEWMGLINPYKGVSTYNGKFKDRVTITADKSTSTAYMELSSLRSEDTAVYYCARSGYYGDSDWYFDVWGQGTLVTVSSASTKGPSVFPLAPSSKSTSGGTAALGCLVKDYFPEPVTVSWNSGALTSGVHTFPAVLQSSGLYSLSSVVTVPSSSLGTQTYICNVNHKPSNTKVDKKVEPKSCDKTHTCPPCPAPPVAGPSVFLFPPKPKDTLMISRTPEVTCVVVDVSHEDPEVKFNWYVDGVEVHNAKTKPREEQYNSTYRVVSVLTVLHQDWLNGKEYKCKVSNKGLPSSIEKTISKAKGQPREPQVYTLPPCRDELTKNQVSLWCLVKGFYPSDIAVEWESNGQPENNYKTTPPVLDSDGSFFLYSKLTVDKSRWQQGNVFSCSVMHEALHNHYTQKSLSLSPGK
light: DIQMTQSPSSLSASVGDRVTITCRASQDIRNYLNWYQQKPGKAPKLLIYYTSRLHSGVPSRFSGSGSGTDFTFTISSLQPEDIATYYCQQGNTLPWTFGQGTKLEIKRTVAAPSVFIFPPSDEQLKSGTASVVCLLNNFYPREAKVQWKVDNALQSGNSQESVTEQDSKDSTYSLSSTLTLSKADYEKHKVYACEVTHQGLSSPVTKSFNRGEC
notes: The scDb is monospecific for HER3; the CD3 site sits in the Fab arm; also called scDb3-43x3-43-Fc(hole)Δab + FdhuU3-Fc(knob)Δab + VLhuU3-CLK
For B1, the concentration for a half-maximal effect (EC50) in the test with CD3 [1] was determined as 8.7 nM; in the test with HER3 [2], 0.7 nM; with HER3 [3] it was 0.249 nM.

B2: scDb/scFv-Fc (2-1)+1, trivalent bispecific anti-EGFRxanti-CD3 (bispecific antibody)
chain 1: QVQLVQSGAEVKKPGSSVKVSCKASGGTFSGYTMNWVRQAPGQGLEWMGLINPYKGVSTYNGKFKDRVTITADKSTSTAYMELSSLRSEDTAVYYCARSGYYGDSDWYFDVWGQGTLVTVSSGGGGSDIQLTQSPSFLSASVGDRVTITCRASQSIGTNIHWYQQKPGKAPKLLIKYASESISGVPSRFSGSGSGTEFTLTISSLQPEDFATYYCQQNNNWPTTFGAGTKLEIKRGGGGSGGGGSGGGGSEVQLVESGGGLVQPGGSLRLSCAASGFSLTNYGVHWVRQAPGKGLEWLGVIWSGGNTDYNTPFTSRFTISRDNSKNTLYLQMNSLRAEDTAVYYCARALTYYDYEFAYWGQGTTVTVSSGGGGSDIQMTQSPSSLSASVGDRVTITCRASQDIRNYLNWYQQKPGKAPKLLIYYTSRLHSGVPSRFSGSGSGTDFTFTISSLQPEDIATYYCQQGNTLPWTFGQGTKLEIKRAAADKTHTCPPCPAPPVAGPSVFLFPPKPKDTLMISRTPEVTCVVVDVSHEDPEVKFNWYVDGVEVHNAKTKPREEQYNSTYRVVSVLTVLHQDWLNGKEYKCKVSNKGLPSSIEKTISKAKGQPREPQVCTLPPSRDELTKNQVSLSCAVKGFYPSDIAVEWESNGQPENNYKTTPPVLDSDGSFFLVSKLTVDKSRWQQGNVFSCSVMHEALHNHYTQKSLSLSPGK
chain 2: EVQLVESGGGLVQPGGSLRLSCAASGFSLTNYGVHWVRQAPGKGLEWLGVIWSGGNTDYNTPFTSRFTISRDNSKNTLYLQMNSLRAEDTAVYYCARALTYYDYEFAYWGQGTTVTVSSGGGGSGGGGSGGGGSDIQLTQSPSFLSASVGDRVTITCRASQSIGTNIHWYQQKPGKAPKLLIKYASESISGVPSRFSGSGSGTEFTLTISSLQPEDFATYYCQQNNNWPTTFGAGTKLEIKRAAADKTHTCPPCPAPPVAGPSVFLFPPKPKDTLMISRTPEVTCVVVDVSHEDPEVKFNWYVDGVEVHNAKTKPREEQYNSTYRVVSVLTVLHQDWLNGKEYKCKVSNKGLPSSIEKTISKAKGQPREPQVYTLPPCRDELTKNQVSLWCLVKGFYPSDIAVEWESNGQPENNYKTTPPVLDSDGSFFLYSKLTVDKSRWQQGNVFSCSVMHEALHNHYTQKSLSLSPGK
notes: also called scDbhuU3xhu225-Fc(hole)Δab + scFvhu225-Fc(knob)Δab
Turning to B2, the “EC50 of PBMC cytotoxicity on FaDu cells, E:T 5:1” value with EGFR [4] stood at 0.027 nM. Further, the “EC50 of PBMC cytotoxicity on SKBR-3 cells, E:T 5:1” value with EGFR [4] came out at 0.277 nM. Also, the EC50 with EGFR [5] was 0.7 nM; in the test with CD3 [6], 16.3 nM; with EGFR [7], 0.1 nM; in the test with EGFR [8], 0.1 nM; with EGFR [9] it was 0.1 nM; with EGFR [10], 0.2 nM.

B3: scDb/Fab-Fc (2-1)+1, trivalent bispecific anti-EGFRxanti-CD3 (bispecific antibody)
chain: QVQLVQSGAEVKKPGSSVKVSCKASGGTFSGYTMNWVRQAPGQGLEWMGLINPYKGVSTYNGKFKDRVTITADKSTSTAYMELSSLRSEDTAVYYCARSGYYGDSDWYFDVWGQGTLVTVSSGGGGSDIQLTQSPSFLSASVGDRVTITCRASQSIGTNIHWYQQKPGKAPKLLIKYASESISGVPSRFSGSGSGTEFTLTISSLQPEDFATYYCQQNNNWPTTFGAGTKLEIKRGGGGSGGGGSGGGGSEVQLVESGGGLVQPGGSLRLSCAASGFSLTNYGVHWVRQAPGKGLEWLGVIWSGGNTDYNTPFTSRFTISRDNSKNTLYLQMNSLRAEDTAVYYCARALTYYDYEFAYWGQGTTVTVSSGGGGSDIQMTQSPSSLSASVGDRVTITCRASQDIRNYLNWYQQKPGKAPKLLIYYTSRLHSGVPSRFSGSGSGTDFTFTISSLQPEDIATYYCQQGNTLPWTFGQGTKLEIKRAAADKTHTCPPCPAPPVAGPSVFLFPPKPKDTLMISRTPEVTCVVVDVSHEDPEVKFNWYVDGVEVHNAKTKPREEQYNSTYRVVSVLTVLHQDWLNGKEYKCKVSNKGLPSSIEKTISKAKGQPREPQVCTLPPSRDELTKNQVSLSCAVKGFYPSDIAVEWESNGQPENNYKTTPPVLDSDGSFFLVSKLTVDKSRWQQGNVFSCSVMHEALHNHYTQKSLSLSPGK
heavy: EVQLVESGGGLVQPGGSLRLSCAASGFSLTNYGVHWVRQAPGKGLEWLGVIWSGGNTDYNTPFTSRFTISRDNSKNTLYLQMNSLRAEDTAVYYCARALTYYDYEFAYWGQGTTVTVSSASTKGPSVFPLAPSSKSTSGGTAALGCLVKDYFPEPVTVSWNSGALTSGVHTFPAVLQSSGLYSLSSVVTVPSSSLGTQTYICNVNHKPSNTKVDKKVEPKSCGTDKTHTCPPCPAPPVAGPSVFLFPPKPKDTLMISRTPEVTCVVVDVSHEDPEVKFNWYVDGVEVHNAKTKPREEQYNSTYRVVSVLTVLHQDWLNGKEYKCKVSNKGLPSSIEKTISKAKGQPREPQVYTLPPCRDELTKNQVSLWCLVKGFYPSDIAVEWESNGQPENNYKTTPPVLDSDGSFFLYSKLTVDKSRWQQGNVFSCSVMHEALHNHYTQKSLSLSPGK
light: DIQLTQSPSFLSASVGDRVTITCRASQSIGTNIHWYQQKPGKAPKLLIKYASESISGVPSRFSGSGSGTEFTLTISSLQPEDFATYYCQQNNNWPTTFGAGTKLEIKRTVAAPSVFIFPPSDEQLKSGTASVVCLLNNFYPREAKVQWKVDNALQSGNSQESVTEQDSKDSTYSLSSTLTLSKADYEKHKVYACEVTHQGLSSPVTKSFNRGEC
notes: also called scDbhuU3xhu225-Fc(hole)Δab + Fdhu225-Fc(knob)Δab + VLhu225-CLκ
Turning to B3, the “EC50 of PBMC cytotoxicity on FaDu cells, E:T 5:1” value with EGFR [4] was 0.056 nM. Also, the “EC50 of PBMC cytotoxicity on SKBR-3 cells, E:T 5:1” value with EGFR [4] came out at 0.209 nM. Moreover, the EC50 with EGFR [5] is 0.2 nM; in the test with CD3 [6], 1.4 nM; with EGFR [7] it was 0.03 nM; with EGFR [8] it was 0.1 nM; with EGFR [9], 0.03 nM; with EGFR [10] it was 0.2 nM.

What is called EC50 is the concentration giving half of the maximal effect. Low values mean higher potency in that assay, high ones lower potency in that assay.

(Values after patent US20220396635A1 (UNIVERSIT T STUTTGART, published 2022).)
